# Experimental data: publication PMC6631230, “Efficient Screening of Combinatorial Peptide Libraries by Spatially Ordered Beads Immobilized on Conventional Glass Slides” (High-Throughput, 2019)
# Assays:
# mouse IgG = conditions: literature IgG-binding peptide listed in Table 3; read-out: KD (equilibrium dissociation constant), literature value; cited from earlier work
# Text: Table 3 Equilibrium dissociation constants (KD) for peptide mouse IgG interaction determined by SPR. | column: KD, µM
# [1] = biological target: polyclonal mouse IgG (mouse); assay: SPR; antibody immobilised by amine coupling on an HC200 chip (Reichert SR7500DC); peptides flowed in HBS-EP (pH 7.4, 0.01 M HEPES, 0.15 M NaCl, 3 mM EDTA, 0.005% Tween 20); multiple kinetics mode
Molecule,Kd (mouse IgG),Kd [1]
HWRGWV,10 µM,–
HFRRHL,26 µM,–
GRIHGPR [IgG BP 1],–,14 µM
GIHPFGR [IgG BP 2],–,50 µM
GEPFSIP [IgG BP 3],–,20 µM
SHSGIFR [IgG BP 4],–,60 µM
